Measurements published in patent US20150344570A1 (published 2015).

B1: GpH7-A5/GpH7-B3 variant G236_05P/GpL16-k0 (antibody, human IgG1, kappa)
heavy 1: not shown
heavy 2: not shown
light: DIVMTQSPLSLPVTPGEPASISCQASESLVHSNRNTYLHWYLQKPGQSPQLLIYKVSNRFSGVPDRFSGSGSGTDFTLKISRVEAEDVGVYYCSQNTHVPPTFGQGTKVEIERTVAAPSVFIFPPSDEQLKSGTASVVCLLNNFYPREAKVQWKVDNALQSGNSQESVTEQDSKDSTYSLSSTLTLSKADYEKHKVYACEVTHQGLSSPVTKSFNRGEC
notes: also called He Ab
B2: GpH7-A5/GpH7-B3 variant K326_02A/GpL16-k0 (antibody, human IgG1, kappa)
heavy 1: not shown
heavy 2: not shown
light: B1 light
notes: Heterodimerized IgG1, mutation in the GpH7-B3 chain only; also called He Ab
B3: GpH7-A5/GpH7-B3 variant K326_07I/GpL16-k0 (antibody, human IgG1, kappa)
heavy 1: not shown
heavy 2: not shown
light: B1 light
notes: as for B2
B4: GpH7-A5/GpH7-B3 variant K326_03V/GpL16-k0 (antibody, human IgG1, kappa)
heavy 1: not shown
heavy 2: not shown
light: B1 light
notes: as for B2
B5: GpH7-A5/GpH7-B3 variant L235_14T/GpL16-k0 (antibody, human IgG1, kappa)
heavy 1: not shown
heavy 2: not shown
light: B1 light
notes: also called He Ab
B6: GpH7-A5/GpH7-B3 variant L235_03V/GpL16-k0 (antibody, human IgG1, kappa)
heavy 1: not shown
heavy 2: not shown
light: B1 light
notes: also called He Ab
B7: GpH7-A5/GpH7-B3 variant H268_02A/GpL16-k0 (antibody, human IgG1, kappa)
heavy 1: not shown
heavy 2: not shown
light: B1 light
notes: as for B2
B8: GpH7-A5/GpH7-B3 variant H268_09D/GpL16-k0 (antibody, human IgG1, kappa)
heavy 1: not shown
heavy 2: not shown
light: B1 light
notes: as for B2
B9: GpH7-A5/GpH7-B3 variant L234_16H/GpL16-k0 (antibody, human IgG1, kappa)
heavy 1: not shown
heavy 2: not shown
light: B1 light
notes: also called He Ab
B10: GpH7-A5/GpH7-B3 variant L235_05P/GpL16-k0 (antibody, human IgG1, kappa)
heavy 1: not shown
heavy 2: not shown
light: B1 light
notes: also called He Ab
B11: GpH7-A5/GpH7-B3 variant L235_13S/GpL16-k0 (antibody, human IgG1, kappa)
heavy 1: not shown
heavy 2: not shown
light: B1 light
notes: also called He Ab
B12: GpH7-A5/GpH7-B3 variant K326_04F/GpL16-k0 (antibody, human IgG1, kappa)
heavy 1: not shown
heavy 2: not shown
light: B1 light
notes: as for B2
B13: GpH7-A5/GpH7-B3 variant L234_19Q/GpL16-k0 (antibody, human IgG1, kappa)
heavy 1: not shown
heavy 2: not shown
light: B1 light
notes: also called He Ab
B14: GpH7-A5/GpH7-B3 variant G236_16H/GpL16-k0 (antibody, human IgG1, kappa)
heavy 1: not shown
heavy 2: not shown
light: B1 light
notes: also called He Ab
B15: GpH7-A5/GpH7-B3 variant L235_18N/GpL16-k0 (antibody, human IgG1, kappa)
heavy 1: not shown
heavy 2: not shown
light: B1 light
notes: also called He Ab
B16: GpH7-A5/GpH7-B3 variant G236_07I/GpL16-k0 (antibody, human IgG1, kappa)
heavy 1: not shown
heavy 2: not shown
light: B1 light
notes: also called He Ab
B17: GpH7-A5/GpH7-B3 variant H268_01G/GpL16-k0 (antibody, human IgG1, kappa)
heavy 1: not shown
heavy 2: not shown
light: B1 light
notes: as for B2
B18: GpH7-A5/GpH7-B3 variant L234_05P/GpL16-k0 (antibody, human IgG1, kappa)
heavy 1: not shown
heavy 2: not shown
light: B1 light
notes: also called He Ab
B19: GpH7-A5/GpH7-B3 variant K326_06M/GpL16-k0 (antibody, human IgG1, kappa)
heavy 1: not shown
heavy 2: not shown
light: B1 light
notes: as for B2
B20: GpH7-A5/GpH7-B3 variant L234_11K/GpL16-k0 (antibody, human IgG1, kappa)
heavy 1: not shown
heavy 2: not shown
light: B1 light
notes: also called He Ab
B21: GpH7-A5/GpH7-B3 variant L235_01G/GpL16-k0 (antibody, human IgG1, kappa)
heavy 1: not shown
heavy 2: not shown
light: B1 light
notes: also called He Ab
B22: GpH7-A5/GpH7-B3 variant G236_20W/GpL16-k0 (antibody, human IgG1, kappa)
heavy 1: not shown
heavy 2: not shown
light: B1 light
notes: also called He Ab; GpH7-A5/GpH7-B3-03-20W/GpL16-k0
B23: GpH7-A5/GpH7-B3 variant L235_19Q/GpL16-k0 (antibody, human IgG1, kappa)
heavy 1: not shown
heavy 2: not shown
light: B1 light
notes: also called He Ab
B24: GpH7-A5/GpH7-B3 variant H268_06M/GpL16-k0 (antibody, human IgG1, kappa)
heavy 1: not shown
heavy 2: not shown
light: B1 light
notes: also called He Ab
B25: GpH7-A5/GpH7-B3 variant G236_12R/GpL16-k0 (antibody, human IgG1, kappa)
heavy 1: not shown
heavy 2: not shown
light: B1 light
notes: also called He Ab
B26: GpH7-A5/GpH7-B3 variant L234_15Y/GpL16-k0 (antibody, human IgG1, kappa)
heavy 1: not shown
heavy 2: not shown
light: B1 light
notes: also called He Ab; GpH7-A5/GpH7-B3-01-15Y/GpL16-k0
B27: GpH7-A5/GpH7-B3 variant L234_03V/GpL16-k0 (antibody, human IgG1, kappa)
heavy 1: not shown
heavy 2: not shown
light: B1 light
notes: also called He Ab
B28: GpH7-A5/GpH7-B3 variant G236_08L/GpL16-k0 (antibody, human IgG1, kappa)
heavy 1: not shown
heavy 2: not shown
light: B1 light
notes: also called He Ab
B29: GpH7-A5/GpH7-B3 variant L234_07I/GpL16-k0 (antibody, human IgG1, kappa)
heavy 1: not shown
heavy 2: not shown
light: B1 light
notes: also called He Ab
B30: GpH7-A5/GpH7-B3 variant G236_15Y/GpL16-k0 (antibody, human IgG1, kappa)
heavy 1: not shown
heavy 2: not shown
light: B1 light
notes: also called He Ab
B31: GpH7-A5/GpH7-B3 variant L235_11K/GpL16-k0 (antibody, human IgG1, kappa)
heavy 1: not shown
heavy 2: not shown
light: B1 light
notes: also called He Ab
B32: GpH7-A5/GpH7-B3 variant H268_13S/GpL16-k0 (antibody, human IgG1, kappa)
heavy 1: not shown
heavy 2: not shown
light: B1 light
notes: as for B2
B33: GpH7-A5/GpH7-B3 variant L234_12R/GpL16-k0 (antibody, human IgG1, kappa)
heavy 1: not shown
heavy 2: not shown
light: B1 light
notes: also called He Ab
B34: GpH7-A5/GpH7-B3 variant H268_10E/GpL16-k0 (antibody, human IgG1, kappa)
heavy 1: not shown
heavy 2: not shown
light: B1 light
notes: as for B2
B35: GpH7-A5/GpH7-B3 variant H268_18N/GpL16-k0 (antibody, human IgG1, kappa)
heavy 1: not shown
heavy 2: not shown
light: B1 light
notes: as for B2

Columns and labels:
[1] = biological target: T1, FcγRIIIa extracellular domain with C-terminal His tag (human, UniProt P08637 17-208); assay: SPR; ratio of He/Con_3a (FcγRIIIa) to He/Con_2b (FcγRIIb)
T1 construct: extracellular domain; also called 3a; FcgRIIIa
T1 sequence (P08637 17-208): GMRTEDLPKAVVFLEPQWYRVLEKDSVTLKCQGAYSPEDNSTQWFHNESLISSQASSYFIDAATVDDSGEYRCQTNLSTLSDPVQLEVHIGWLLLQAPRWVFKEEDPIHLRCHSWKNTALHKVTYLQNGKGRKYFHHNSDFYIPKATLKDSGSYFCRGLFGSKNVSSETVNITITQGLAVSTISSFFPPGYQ
Description: The heterodimerized antibodies He Abs in which one of the H chains was introduced with an alteration were assayed for their binding activities to each activating FcγR and inhibitory FcγR according to the method described in Example 4. […] The activating FcγRs in FIGS. 26, 27, 28, and 29 are FcγRIa, FcγRIIa (R), FcγRIIa (H), and FcγRIIIa, respectively.
Analysis of interaction between objective antibody and the FcγR was carried out using Biacore T100 (GE Healthcare). HBS-EP+ (GE Healthcare) was used as the running buffer, and the measurement temperature was set to 25° C. Chips produced by immobilizing the antigen peptide by the amine coupling method to a Series S Sencor Chip CM5 (GE Healthcare), or alternatively, chips produced by allowing preliminarily biotinylated antigen peptides to interact with and immobilize onto a Series S Sensor Chip SA (certified) (GE Healthcare) were used. Antibodies of interest were captured onto an antigen peptide-immobilized chip, and allowed to interact to each FcγR diluted with running buffer. To regenerate and repeatedly use the chip, the antibodies captured on the chip were washed off by reacting 10 mM glycine-HCl, pH 1.5.

[2] = biological target: T1, FcγRIIIa extracellular domain with …; assay: SPR, binding relative to GpH7-A5/GpH7-B3/GpL16-k0 = 100
[3] = biological target: T2, FcγRIIb extracellular domain with C-terminal His tag (human, UniProt P31994 43-217); assay: as above
T2 construct: extracellular domain; also called 2b; FcgRIIb
T2 sequence (looked up): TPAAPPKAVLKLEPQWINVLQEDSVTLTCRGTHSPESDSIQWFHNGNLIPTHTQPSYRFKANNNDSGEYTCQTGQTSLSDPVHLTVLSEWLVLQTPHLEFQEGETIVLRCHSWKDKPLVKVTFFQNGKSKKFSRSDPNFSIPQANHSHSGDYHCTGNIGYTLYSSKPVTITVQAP

[4] = biological target: T3, FcγRIIb extracellular domain with C-terminal His tag (human, UniProt P31994 43-217); assay: SPR (Biacore), antibody captured, FcγR as analyte; binding relative to GpH7-A5/GpH7-B3/GpL16-k0 = 100
T3 construct: extracellular domain; Soluble receptor used as analyte in Biacore; also called FcgRIIb
T3 sequence (looked up): T2 sequence (looked up)

[5] = biological target: T4, FcγRIa extracellular domain with C-terminal His tag (human, UniProt P12314 16-292); assay: as above
T4 construct: extracellular domain; Soluble receptor used as analyte in Biacore; also called FcgRI
T4 sequence (P12314 16-292): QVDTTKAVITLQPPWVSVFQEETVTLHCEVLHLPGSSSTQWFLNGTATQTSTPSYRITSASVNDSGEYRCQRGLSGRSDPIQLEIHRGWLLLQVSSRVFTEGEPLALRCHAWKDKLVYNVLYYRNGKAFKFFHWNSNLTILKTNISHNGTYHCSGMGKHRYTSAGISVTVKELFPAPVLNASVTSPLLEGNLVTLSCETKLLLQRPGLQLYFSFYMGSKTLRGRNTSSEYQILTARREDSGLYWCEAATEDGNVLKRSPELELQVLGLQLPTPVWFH

[6] = biological target: T4, FcγRIa extracellular domain with …; assay: ratio He/Con_1a : He/Con_2b (FcγRIa over FcγRIIb), SPR (Biacore)

Row | Binder | He_3a/2b (IIIa/IIb) [1] | He/Con_3a [2] | He/Con_2b [3] | He/Con_2b [4] | He/Con_1a [5] | He_1a/2b (Ia/IIb) [6]
1 | B1 | 1.95 | 37.1 % of control | 19 % of control |  |  | 
2 | B2 |  |  |  | 139 control = 100 | 102 control = 100 | 0.73
3 | B3 |  |  |  | 199 control = 100 | 101 control = 100 | 0.51
4 | B4 |  |  |  | 175 control = 100 | 102 control = 100 | 0.58
5 | B5 | 1.62 | 75.8 % of control | 46.8 % of control |  |  | 
6 | B6 | 1.48 | 98 % of control | 66.4 % of control |  |  | 
7 | B7 |  |  |  | 167 control = 100 | 109 control = 100 | 0.65
8 | B8 |  |  |  | 239 control = 100 | 110 control = 100 | 0.46
9 | B9 | 1.34 | 79.5 % of control | 59.4 % of control |  |  | 
10 | B10 | 1.3 | 71.1 % of control | 54.7 % of control |  |  | 
11 | B11 | 1.44 | 69.6 % of control | 48.2 % of control |  |  | 
12 | B12 |  |  |  | 155 control = 100 | 102 control = 100 | 0.66
13 | B13 | 1.32 | 79.8 % of control | 60.3 % of control |  |  | 
14 | B14 | 1.54 | 43.1 % of control | 27.9 % of control |  |  | 
15 | B15 | 1.23 | 67.3 % of control | 54.9 % of control |  |  | 
16 | B16 | 1.93 | 59.7 % of control | 31 % of control |  |  | 
17 | B17 |  |  |  | 144 control = 100 | 107 control = 100 | 0.75
18 | B18 | 1.21 | 88.1 % of control | 72.9 % of control |  |  | 

Row | Binder | He_3a/2b (IIIa/IIb) [1] | He/Con_3a [2] | He/Con_2b [3] | He/Con_2b [4] | He/Con_1a [5] | He_1a/2b (Ia/IIb) [6]
19 | B19 |  |  |  | 165 control = 100 | 102 control = 100 | 0.62
20 | B20 | 1.88 | 30.5 % of control | 16.2 % of control |  |  | 
21 | B21 | 1.66 | 58.8 % of control | 35.4 % of control |  |  | 
22 | B22 | 2.33 | 135 % of control | 58.2 % of control |  |  | 
23 | B23 | 1.65 | 70.5 % of control | 42.6 % of control |  |  | 
24 | B24 | 1.22 | 80.3 % of control | 65.7 % of control |  |  | 
25 | B25 | 1.84 | 12.5 % of control | 6.8 % of control |  |  | 
26 | B26 | 1.35 | 130 % of control | 96.3 % of control |  |  | 
27 | B27 | 1.25 | 91.4 % of control | 73.1 % of control |  |  | 
28 | B28 | 1.21 | 32.5 % of control | 26.8 % of control |  |  | 
29 | B29 | 1.27 | 103 % of control | 80.9 % of control |  |  | 
30 | B30 | 3.06 | 121 % of control | 39.5 % of control |  |  | 
31 | B31 | 6.06 | 38.1 % of control | 6.3 % of control |  |  | 
32 | B32 |  |  |  | 160 control = 100 | 109 control = 100 | 0.68
33 | B33 | 1.95 | 36.9 % of control | 18.9 % of control |  |  | 
34 | B34 |  |  |  | 230 control = 100 | 111 control = 100 | 0.48
35 | B35 |  |  |  | 156 control = 100 | 108 control = 100 | 0.69
